Source: patent publication US20230203177A1 (Bristol-Myers Squibb, published 2023)
Numbering of substitutions follows the chain as printed. In names and notes the source's numbering stands.

B1: M4 (HC-K12E / LC-wt) (antibody, human IgG1, kappa)
heavy: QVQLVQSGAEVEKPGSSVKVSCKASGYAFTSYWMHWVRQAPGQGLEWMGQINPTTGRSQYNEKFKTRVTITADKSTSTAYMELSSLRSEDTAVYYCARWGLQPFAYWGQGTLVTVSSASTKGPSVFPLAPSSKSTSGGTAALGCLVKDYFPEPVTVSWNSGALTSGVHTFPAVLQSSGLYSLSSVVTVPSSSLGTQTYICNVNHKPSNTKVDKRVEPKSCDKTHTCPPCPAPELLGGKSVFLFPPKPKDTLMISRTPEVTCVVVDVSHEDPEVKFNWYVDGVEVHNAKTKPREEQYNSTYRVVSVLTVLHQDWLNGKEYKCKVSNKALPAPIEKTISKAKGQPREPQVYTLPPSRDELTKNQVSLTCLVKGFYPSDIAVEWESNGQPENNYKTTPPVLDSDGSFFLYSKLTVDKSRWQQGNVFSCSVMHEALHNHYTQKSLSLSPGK
light: DIQMTQSPSFLSASVGDRVTITCKASQDVSTAVAWYQQKPGKAPKLLIYSASYRYTGVPSRFSGSGSGTDFTLTISSLQPEDFATYYCQQHYSTPWTFGGGTKVEIKRTVAAPSVFIFPPSDEQLKSGTASVVCLLNNFYPREAKVQWKVDNALQSGNSQESVTEQDSKDSTYSLSSTLTLSKADYEKHKVYACEVTHQGLSSPVTKSFNRGEC
notes: IgG1-P238K; two production batches; also called HC4/LC1; M4-b
B2: M37 (HC-K12E,K13Q,K23E / LC-K45E) (antibody, human IgG1, kappa)
heavy: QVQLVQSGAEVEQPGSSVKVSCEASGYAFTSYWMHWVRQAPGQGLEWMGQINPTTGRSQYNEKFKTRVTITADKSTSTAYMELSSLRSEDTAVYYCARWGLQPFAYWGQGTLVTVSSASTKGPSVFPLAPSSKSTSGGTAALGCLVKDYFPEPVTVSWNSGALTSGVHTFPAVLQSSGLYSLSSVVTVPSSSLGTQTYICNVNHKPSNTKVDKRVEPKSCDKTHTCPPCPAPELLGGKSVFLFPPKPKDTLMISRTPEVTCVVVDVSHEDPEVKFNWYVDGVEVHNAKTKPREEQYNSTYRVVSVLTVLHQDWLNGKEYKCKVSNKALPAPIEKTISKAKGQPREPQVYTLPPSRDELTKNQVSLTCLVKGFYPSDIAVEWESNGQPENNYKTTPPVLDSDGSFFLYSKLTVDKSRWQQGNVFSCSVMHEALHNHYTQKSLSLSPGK
light: B1 light with K45E
notes: IgG1-P238K; also called HC5/LC3
B3: M10 (HC-R67E / LC-wt) (antibody, human IgG1, kappa)
heavy: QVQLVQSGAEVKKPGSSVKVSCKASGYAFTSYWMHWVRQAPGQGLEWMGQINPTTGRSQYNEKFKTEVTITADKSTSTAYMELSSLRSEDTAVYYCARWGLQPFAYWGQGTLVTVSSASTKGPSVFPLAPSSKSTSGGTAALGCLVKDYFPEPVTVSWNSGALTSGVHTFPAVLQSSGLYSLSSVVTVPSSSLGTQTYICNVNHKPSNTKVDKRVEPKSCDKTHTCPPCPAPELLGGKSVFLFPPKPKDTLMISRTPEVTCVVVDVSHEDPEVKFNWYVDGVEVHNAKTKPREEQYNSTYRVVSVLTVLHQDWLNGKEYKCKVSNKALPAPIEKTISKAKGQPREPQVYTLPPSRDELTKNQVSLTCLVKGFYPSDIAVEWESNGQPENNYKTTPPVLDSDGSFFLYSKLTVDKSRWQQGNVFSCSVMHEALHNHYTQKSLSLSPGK
light: B1 light
notes: IgG1-P238K; also called HC10/LC1
B4: M38 (HC-K12V,K19S,K23A / LC-K45E) (antibody, human IgG1, kappa, V domains shown)
VH: QVQLVQSGAEVVKPGSSVSVSCAASGYAFTSYWMHWVRQAPGQGLEWMGQINPTTGRSQYNEKFKTRVTITADKSTSTAYMELSSLRSEDTAVYYCARWGLQPFAYWGQGTLVTVSS
VL: DIQMTQSPSFLSASVGDRVTITCKASQDVSTAVAWYQQKPGKAPELLIYSASYRYTGVPSRFSGSGSGTDFTLTISSLQPEDFATYYCQQHYSTPWTFGGGTKVEIKR
notes: IgG1-P238K; also called HC6/LC3
B5: M33 (HC-wt / LC-K45E) (antibody, human IgG1, kappa)
heavy: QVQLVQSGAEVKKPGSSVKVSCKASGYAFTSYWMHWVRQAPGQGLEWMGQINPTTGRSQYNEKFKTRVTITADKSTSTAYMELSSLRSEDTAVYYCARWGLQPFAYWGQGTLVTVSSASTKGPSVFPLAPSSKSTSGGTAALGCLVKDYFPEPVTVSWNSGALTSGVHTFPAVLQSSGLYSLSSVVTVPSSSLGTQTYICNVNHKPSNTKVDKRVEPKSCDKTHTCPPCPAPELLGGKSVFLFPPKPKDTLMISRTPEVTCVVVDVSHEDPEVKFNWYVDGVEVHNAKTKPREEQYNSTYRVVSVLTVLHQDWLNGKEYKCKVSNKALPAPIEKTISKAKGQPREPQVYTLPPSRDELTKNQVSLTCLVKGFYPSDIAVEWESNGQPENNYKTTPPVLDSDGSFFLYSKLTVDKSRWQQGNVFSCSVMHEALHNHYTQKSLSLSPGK
light: B1 light with K45E
notes: IgG1-P238K; also called HC1/LC3
B6: M36 (HC-K12E / LC-K45E) (antibody, human IgG1, kappa)
heavy: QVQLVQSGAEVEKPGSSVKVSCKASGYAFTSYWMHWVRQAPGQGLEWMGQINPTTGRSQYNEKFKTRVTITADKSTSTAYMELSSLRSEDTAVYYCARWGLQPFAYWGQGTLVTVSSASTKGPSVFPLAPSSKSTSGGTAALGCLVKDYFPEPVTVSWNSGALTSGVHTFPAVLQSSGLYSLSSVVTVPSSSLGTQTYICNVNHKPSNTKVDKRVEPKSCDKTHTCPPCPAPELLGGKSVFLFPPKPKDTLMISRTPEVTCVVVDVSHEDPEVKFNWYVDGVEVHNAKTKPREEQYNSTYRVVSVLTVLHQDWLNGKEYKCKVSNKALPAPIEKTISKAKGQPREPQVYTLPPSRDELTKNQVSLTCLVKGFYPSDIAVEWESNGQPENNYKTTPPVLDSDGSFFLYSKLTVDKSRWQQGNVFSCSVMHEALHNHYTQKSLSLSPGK
light: B1 light with K45E
notes: IgG1-P238K; also called HC4/LC3
B7: M49 (HC-wt / LC-K45Q,R54Q,R61Q) (antibody, human IgG1, kappa)
heavy: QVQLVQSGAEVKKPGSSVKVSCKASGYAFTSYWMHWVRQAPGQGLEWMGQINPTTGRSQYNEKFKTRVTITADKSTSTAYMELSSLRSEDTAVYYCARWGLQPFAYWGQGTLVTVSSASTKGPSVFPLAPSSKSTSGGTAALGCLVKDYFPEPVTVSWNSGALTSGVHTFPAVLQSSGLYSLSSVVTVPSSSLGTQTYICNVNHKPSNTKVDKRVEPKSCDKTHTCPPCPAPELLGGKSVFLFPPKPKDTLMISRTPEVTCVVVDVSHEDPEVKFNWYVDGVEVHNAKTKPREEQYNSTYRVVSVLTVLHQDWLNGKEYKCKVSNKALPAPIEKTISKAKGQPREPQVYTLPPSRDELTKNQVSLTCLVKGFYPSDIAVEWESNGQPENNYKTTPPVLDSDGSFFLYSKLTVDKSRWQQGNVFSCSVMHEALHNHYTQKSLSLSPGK
light: B1 light with K45Q, R54Q, R61Q
notes: IgG1-P238K; also called HC1/LC4
B8: M62 (HC-K74T / LC-K45Q,R54Q,R61Q) (antibody, human IgG1, kappa, V domains shown)
VH: B4 VH with V12K, S19K, A23K, K74T
VL: B4 VL with E45Q, R54Q, R61Q
notes: IgG1-P238K; also called HC14/LC4
B9: M53 (HC-K12E,K13Q,K23E / LC-K45Q,R54Q,R61Q) (antibody, human IgG1, kappa)
heavy: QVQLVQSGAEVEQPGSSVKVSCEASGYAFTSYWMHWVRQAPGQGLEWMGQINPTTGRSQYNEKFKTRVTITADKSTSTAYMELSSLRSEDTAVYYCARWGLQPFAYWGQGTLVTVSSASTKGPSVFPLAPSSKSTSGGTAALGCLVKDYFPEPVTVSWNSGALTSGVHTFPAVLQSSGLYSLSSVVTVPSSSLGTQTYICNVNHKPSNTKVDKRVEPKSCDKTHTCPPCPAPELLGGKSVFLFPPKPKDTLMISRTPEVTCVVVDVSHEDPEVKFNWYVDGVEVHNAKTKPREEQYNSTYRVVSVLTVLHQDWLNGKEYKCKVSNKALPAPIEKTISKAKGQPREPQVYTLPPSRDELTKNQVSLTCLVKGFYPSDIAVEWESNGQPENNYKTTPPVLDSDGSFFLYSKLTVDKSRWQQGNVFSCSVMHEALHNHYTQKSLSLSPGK
light: B1 light with K45Q, R54Q, R61Q
notes: IgG1-P238K; also called HC5/LC4
B10: M47 (HC-R67Q / LC-K45E) (antibody, human IgG1, kappa, V domains shown)
VH: B4 VH with V12K, S19K, A23K, R67Q
VL: B4 VL
notes: IgG1-P238K; also called HC15/LC3
B11: M54 (HC-K12V,K19S,K23A / LC-K45Q,R54Q,R61Q) (antibody, human IgG1, kappa, V domains shown)
VH: B4 VH
VL: B4 VL with E45Q, R54Q, R61Q
notes: IgG1-P238K; also called HC6/LC4
B12: M13 (HC-E46K,E62K / LC-wt) (antibody, human IgG1, kappa)
heavy: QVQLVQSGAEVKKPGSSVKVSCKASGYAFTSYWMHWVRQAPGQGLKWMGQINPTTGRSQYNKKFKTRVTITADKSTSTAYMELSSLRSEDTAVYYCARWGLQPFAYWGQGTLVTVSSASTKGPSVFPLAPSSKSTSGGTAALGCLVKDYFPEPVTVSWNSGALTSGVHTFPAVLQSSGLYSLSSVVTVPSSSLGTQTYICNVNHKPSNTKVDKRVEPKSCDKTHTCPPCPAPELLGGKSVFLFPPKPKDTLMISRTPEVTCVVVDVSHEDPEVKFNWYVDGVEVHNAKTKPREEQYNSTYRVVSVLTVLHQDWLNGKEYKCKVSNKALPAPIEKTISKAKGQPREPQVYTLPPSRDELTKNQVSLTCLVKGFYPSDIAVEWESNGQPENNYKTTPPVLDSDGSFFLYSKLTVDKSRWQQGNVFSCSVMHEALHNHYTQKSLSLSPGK
light: B1 light
notes: IgG1-P238K; proof of concept control with more positive charge; also called HC13/LC1
B13: M85 (HC-K12E,K13Q,K23E / LC-K107Q,R108Q) (antibody, human IgG1, kappa)
heavy: not shown
light: B1 light with K107Q, R108Q
notes: IgG1-P238K; also called HC5/LC6
B14: M87 (HC-K23E / LC-K107Q,R108Q) (antibody, human IgG1, kappa)
heavy: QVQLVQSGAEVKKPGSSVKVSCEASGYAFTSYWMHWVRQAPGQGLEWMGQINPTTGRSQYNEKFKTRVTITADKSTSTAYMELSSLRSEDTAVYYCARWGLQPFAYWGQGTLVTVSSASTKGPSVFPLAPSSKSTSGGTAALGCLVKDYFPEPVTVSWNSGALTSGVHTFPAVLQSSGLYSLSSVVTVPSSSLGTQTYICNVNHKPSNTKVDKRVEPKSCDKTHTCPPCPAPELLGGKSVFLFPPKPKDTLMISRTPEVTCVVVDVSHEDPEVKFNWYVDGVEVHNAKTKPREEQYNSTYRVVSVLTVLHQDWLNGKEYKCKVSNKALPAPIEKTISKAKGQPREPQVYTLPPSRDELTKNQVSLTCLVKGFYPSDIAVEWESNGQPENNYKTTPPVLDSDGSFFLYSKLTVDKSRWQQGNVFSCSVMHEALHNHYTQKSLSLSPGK
light: B1 light with K107Q, R108Q
notes: IgG1-P238K; also called HC7/LC6
B15: M95 (HC-R67Q / LC-K107Q,R108Q) (antibody, human IgG1, kappa)
heavy: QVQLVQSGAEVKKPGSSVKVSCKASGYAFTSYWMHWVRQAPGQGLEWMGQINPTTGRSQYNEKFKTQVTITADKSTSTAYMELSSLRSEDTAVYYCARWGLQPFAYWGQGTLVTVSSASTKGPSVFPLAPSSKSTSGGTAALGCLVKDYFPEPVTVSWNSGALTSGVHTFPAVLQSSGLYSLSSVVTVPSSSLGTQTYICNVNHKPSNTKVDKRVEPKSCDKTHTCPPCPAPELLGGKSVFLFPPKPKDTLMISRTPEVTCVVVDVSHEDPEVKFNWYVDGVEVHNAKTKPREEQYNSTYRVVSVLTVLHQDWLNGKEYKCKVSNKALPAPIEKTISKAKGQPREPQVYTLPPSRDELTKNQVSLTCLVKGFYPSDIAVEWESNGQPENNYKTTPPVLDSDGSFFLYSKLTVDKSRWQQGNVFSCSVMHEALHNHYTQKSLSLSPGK
light: B1 light with K107Q, R108Q
notes: IgG1-P238K; also called HC15/LC6
B16: M88 (HC-R38Q,K63Q,R67Q / LC-K107Q,R108Q) (antibody, human IgG1, kappa)
heavy: not shown
light: B1 light with K107Q, R108Q
notes: IgG1-P238K; also called HC8/LC6
B17: M86 (HC-K12V,K19S,K23A / LC-K107Q,R108Q) (antibody, human IgG1, kappa)
heavy: not shown
light: B1 light with K107Q, R108Q
notes: IgG1-P238K; also called HC6/LC6
B18: M90 (HC-R67E / LC-K107Q,R108Q) (antibody, human IgG1, kappa)
heavy: not shown
light: B1 light with K107Q, R108Q
notes: IgG1-P238K; also called HC10/LC6
B19: M91 (HC-R57E / LC-K107Q,R108Q) (antibody, human IgG1, kappa)
heavy: not shown
light: B1 light with K107Q, R108Q
notes: IgG1-P238K; also called HC11/LC6
B20: M89 (HC-K63Q,R67E / LC-K107Q,R108Q) (antibody, human IgG1, kappa)
heavy: not shown
light: B1 light with K107Q, R108Q
notes: IgG1-P238K; also called HC9/LC6
B21: M93 (HC-E46K,E62K / LC-K107Q,R108Q) (antibody, human IgG1, kappa)
heavy: not shown
light: B1 light with K107Q, R108Q
notes: IgG1-P238K; also called HC13/LC6
B22: M92 (HC-R57E,K74Q / LC-K107Q,R108Q) (antibody, human IgG1, kappa)
heavy: not shown
light: B1 light with K107Q, R108Q
notes: IgG1-P238K; also called HC12/LC6
B23: M94 (HC-K74T / LC-K107Q,R108Q) (antibody, human IgG1, kappa)
heavy: not shown
light: B1 light with K107Q, R108Q
notes: IgG1-P238K; also called HC14/LC6
B24: M96 (HC-K63Q / LC-K107Q,R108Q) (antibody, human IgG1, kappa)
heavy: not shown
light: B1 light with K107Q, R108Q
notes: IgG1-P238K; also called HC16/LC6

target: human CD40 on primary human tonsillar B cells (human, UniProt P25942 21-277); test: cell-based or functional assay
Sequence (P25942 21-277 limits assumed): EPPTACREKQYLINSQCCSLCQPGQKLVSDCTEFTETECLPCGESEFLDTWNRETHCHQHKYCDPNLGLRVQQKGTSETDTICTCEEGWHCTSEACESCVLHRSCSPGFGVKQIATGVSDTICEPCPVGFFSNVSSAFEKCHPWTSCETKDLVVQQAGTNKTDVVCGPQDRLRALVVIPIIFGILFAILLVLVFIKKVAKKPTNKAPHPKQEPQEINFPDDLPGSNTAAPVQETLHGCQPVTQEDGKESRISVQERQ

Binder | IC50, inhibition of tonsillar human B cell proliferation stimulated by IZ-hCD40L trimer (M4 lot 1) [µg/mL] | IC50, inhibition of tonsillar human B cell proliferation stimulated by IZ-hCD40L trimer (M4 lot 2) [µg/mL] | IC50, inhibition of tonsillar human B cell proliferation stimulated by hCD40L expressing CHO cells (M4 lot 1) [µg/mL] | IC50, inhibition of tonsillar human B cell proliferation stimulated by hCD40L expressing CHO cells (M4 lot 2) [µg/mL] | IC50, inhibition of tonsillar human B cell proliferation stimulated by IZ-hCD40L trimer [µg/mL] | IC50, inhibition of tonsillar human B cell proliferation stimulated by hCD40L expressing CHO cells [µg/mL]
B1 | 0.0029 | 0.0008 | 0.0237 | 0.0396 |  | 
B2 |  |  |  |  | 0.0009 | 0.129
B3 |  |  |  |  | 0.0277 | 0.353
B4 |  |  |  |  | 0.0072 | 0.181
B5 |  |  |  |  | 0.0009 | 0.0575
B6 |  |  |  |  | 0.0026 | 0.0477
B7 |  |  |  |  | 0.0007 | 0.0672
B8 |  |  |  |  | 0.0062 | 0.356
B9 |  |  |  |  | 0.0034 | 0.367
B10 |  |  |  |  | 0.0004 | 0.0547
B11 |  |  |  |  | 0.0033 | 0.201
B12 |  |  |  |  | 0.0033 | 0.0208

target: T1, soluble human CD40 extracellular domain (human, UniProt P25942 21-193); test: SPR, purified Ab on protein A, 6 concentrations of hCD40 ECD
T1 construct: Produced in house; also called hCD40; soluble hCD40 extracellular domain
Procedure: Additionally, to more accurately define the dissociation rate (kd), a longer dissociation time of 360 seconds (s) was used as opposed to the shorter 180 s dissociation that had been used in the supernatant screening experiment.
CD40 binding SPR: SPR studies of the purified antibodies were conducted on BIAcore™ T200 instrument (GE Healthcare, Chicago Ill.). A Series S Protein A sensor chip (GE Healthcare, Chicago Ill.) was equilibrated with SPR running buffer of 10 mM NaPO₄, 130 mM NaCl, 0.05% tween 20, (PBS-T) pH 7.2 at 25° C. The purified antibody samples were diluted to 3 μg/ml in PBS-T and captured on the protein A surface for 30 s at 10 μl/min Binding of 3.91, 7.81, 15.6, 31.3, 62.5, and 125 nM human CD40 extracellular domain (produced in house) was evaluated using association time of 180 s at 30 μl/min, followed by a dissociation time of 360 s at 30 μl/min Regeneration between cycles was accomplished using two 15 s injections of 10 mM glycine pH 1.5. […] Data were analyzed using BIAcore™ T200 evaluation software by fitting to a 1:1 Langmuir model.

T1 sequence (P25942 21-193 limits assumed): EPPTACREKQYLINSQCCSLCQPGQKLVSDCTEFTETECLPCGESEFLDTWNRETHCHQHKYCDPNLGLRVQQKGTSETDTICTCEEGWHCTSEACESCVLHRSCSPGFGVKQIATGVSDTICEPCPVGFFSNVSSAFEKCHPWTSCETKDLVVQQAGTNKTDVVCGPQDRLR

Binder | Kd [nM] | koff [s⁻¹] | kon [M⁻¹ s⁻¹]
B1 | 2.8 | 0.00069 | 250000
B2 | 3.3 | 0.00084 | 250000
B3 | 2.3 | 0.00067 | 290000
B4 | 2.8 | 0.00077 | 280000
B5 | 2.9 | 0.00073 | 260000
B6 | 2.6 | 0.00078 | 300000
B7 | 2.2 | 0.0007 | 320000
B8 | 2.2 | 0.00066 | 300000
B9 | 2.5 | 0.0008 | 320000
B10 | 2.2 | 0.00074 | 330000
B11 | 2.3 | 0.00075 | 330000
B12 | 8.4 | 0.00068 | 81000

target: T1, soluble human CD40 extracellular domain; test: SPR, Ab captured from supernatant on protein A, hCD40 ECD analyte
Procedure: The titer data (Table 21) were used to normalize the antibody concentration in each supernatant to 3 μg/ml, and these antibodies were captured out of the supernatants on a protein A CMS Series S sensor chip (GE Healthcare), and tested for binding to two concentrations (5 nM and 50 nM) of soluble hCD40 extracellular domain.
CD40 binding SPR of antibody supernatants: Surface plasmon resonance (SPR) studies were conducted on a BIAcore™ T200 instrument (GE Healthcare, Chicago Ill.). A Series S Protein A sensor chip (GE Healthcare, Chicago Ill.) was equilibrated with SPR running buffer of 10 mM NaPO₄, 130 mM NaCl, 0.05% tween 20, (PBS-T) pH 7.2 at 25° C. The 96 antibody supernatants were normalized to a concentration of 3 μg/ml by diluting with PBS-T using a PerkinElmer JANUS® G3 system (PerkinElmer, Akron, Ohio). After priming the system, the 3 μg/ml antibody samples were captured on the protein A surface for 30 s at 10 μl/min Binding of 50 nM and 500 nM human CD40 extracellular domain (produced in house) was evaluated using association time of 180 s at 30 μl/min, followed by a dissociation time of 180 s at 30 μl/min Regeneration between cycles was accomplished using two 15 s injections of 10 mM glycine pH 1.5. […] Data were analyzed using BIAcore™ T200 evaluation software by fitting to a 1:1 Langmuir model.

Binder | Kd [nM]
B1 | 3.6
B13 | 3.3
B2 | 4.1
B14 | 4.3
B15 | 3.4
B3 | 3
B4 | 3.9
B16 | 3.2
B5 | 4
B17 | 3.7
B6 | 3.4
B18 | 3
B7 | 3
B8 | 3.1
B19 | 9.6
B9 | 3.2
B10 | 3.2
B11 | 3
B20 | 3.3
B21 | 8.1
B12 | 8
B22 | 13.4
B23 | 3.6
B24 | 3.9

target: T1, soluble human CD40 extracellular domain; test: SPR, antibody captured from supernatant on protein A chip, soluble hCD40 ECD at 5 and 50 nM (summary table of the 16 chosen antibodies)

Binder | Kd [nM]
B1 | 3.6
B2 | 4.1
B3 | 3
B4 | 3.9
B5 | 4
B6 | 3.4
B7 | 3
B8 | 3.1
B9 | 3.2
B10 | 3.2
B11 | 3
B12 | 8
